B1: Actin filament-associated protein 1 (Gallus gallus (Chicken)), Q90738 (parent)
chain: MEELIVELRLFLELLDHEYLTSTVREKKAVITNILLRIQSSKGFEIKEHVQKPEVANSLPAPPQMPLPEIPQQWLPPDNGPPPLPTSSLPEGYYEEAVPVSPGKAPEYITSNYDSDAMSSSYESYDEEEEDGKGKKMRHQWPSEEASMDLVKDAKICAFLLRKKRFGQWTKLLCVIKENKLLCYKSSKDQQPQMELLLNDCSITYIPKDSKKKKHELKISHQGADALVLAVQSKEQAEQWLKVIKDVCSNCTGTVDSDGPLSSSPVHKTELEKKLSSERPSSDGEGAVENGITTVCNGKEQVKRKKSSKTEAKGTVTKVTGKKITKIIGLGKKKPSTDEQTSSAEEDVPTCGYLNVLSNNRWRERWCRVKDNKLIFHKDRTDLKTHIVSIPLRGCEVIPGLDSKHPLTFRLLRNGQEVAVLEASSSEDMGRWIGMLLAETGSSTDPGALHYDYIDVEMTASVIQAAKQTFCFMNRRVISTNPYRGSTANGYACPSGMALHYDDVPCINGSFKGKKPPATANGITGKVRTLNSQPKKPESVSCVKRTASNAEQYKYGKNRVEAVAKRLQSKEEELLKRKEALRNRLAQLRKERKDLRAAIEVNAGRKTQVILEDKLKKLEEECKTKEAERVNLELELTEVKESLKKALAGGITLGLAIEPKSGTSSPQSPIFKHRTLENSPISSCDTSDTECSIPVNSAAALKRPPSSNNSPCRGHVLRKAKEWEMKNGT

Variants of: B1
Settings: with src_chick SRC

Row | Variant | effect of a mutation on the interaction
1 | P71A | decreasing interaction

Source: IntAct's records for PubMed 21236256
